Source: the supplement of paper PMC12764529
± gives the half width of the 95% confidence interval.

Legend:
[1] = folding stability dG unfold from trypsin proteolysis; higher = more stable
How it was run: (§1)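 K50 was inferred by Bayesian fitting of sequencing counts obtained after protease digestion of designed mini-proteins. Unfolding free energy was derived by comparison with a sequence-predicted unfolded-state K50 and a shared folded-state K50, for each protease or both combined. The mini-proteins were under 80 residues, had no cysteine, were carried in a PA-tagged cDNA display construct, and were kept only if AlphaFold2 dimer inter-PAE exceeded 15.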

[2] = folding stability dG unfold from chymotrypsin proteolysis; higher = more stable
How it was run: as §1

[3] = folding stability dG unfold (combined trypsin and chymotrypsin); higher = more stable
How it was run: as §1

Sequence | folding stability dG unfold [1] | folding stability dG unfold [2] | folding stability dG unfold [3]
SAGGSAGGSMRTITYEFPPGTTKEEVIEKVKELAKKEGLPIEKIESITEDPETGTYTVTVVVKSAGGSAGGS [r12_131_JUSTAS] | 4.2 ± 0.42 kcal/mol | 4.65 ± 0.14 kcal/mol | 4.59 ± 0.34 kcal/mol
SAGGSAGGSMRVRFLVTEPGLGPETAALRVERRLLEEYPVRVKGVRVRTRPDGGYLVVVEVEPSAGGSAGGS [r12_781_TrMRF] | 0.673 ± 0.076 kcal/mol | 1.03 ± 0.1 kcal/mol | 0.94 ± 0.088 kcal/mol
SAGGSAGGSMSTSLSLSSAPGVSVVTTAHPDSTVVTEQPPDGSRVVRVLDPAGELVAEEAVAPSAGGSAGGS [r12_471_JUSTAS] | -0.623 ± 0.36 kcal/mol | -0.302 ± 0.16 kcal/mol | -0.33 ± 0.15 kcal/mol
SAGGSAGGSMTFEILPDGKTKTLTLDEAKELILNEVPPDTTVVNLDTGKVISAEEFLKLLGIKVSAGGSAGG [r6_937_JUSTAS] | 0.998 ± 0.016 kcal/mol | 0.943 ± 0.084 kcal/mol | 0.998 ± 0.084 kcal/mol
SAGGSAGGSMTIDGNALYEELGKDLPDEEKRKLFEEKAEEIAKKLGIPNMKVNINIKKPNEIKSAGGSAGGS [r12_666_JUSTAS] | -0.213 ± 0.093 kcal/mol | 0.135 ± 0.051 kcal/mol | 0.0998 ± 0.078 kcal/mol
SAGGSAGGSMTITKRSDGTIEVEIEISPEHPDVSPEEVKERVKKELEKKGIKTPVKITVKPVPESAGGSAGG [r6_480_JUSTAS] | 1.35 ± 0.044 kcal/mol | 2.27 ± 0.14 kcal/mol | 1.92 ± 0.19 kcal/mol
SAGGSAGGSMTIVDPETGETLEIIEVKKNEDGKESFIFRISSPKPRYFIIDKDGNIRVIEKKDSAGGSAGGS [r12_205_TrROS_Hall] | 1.36 ± 0.022 kcal/mol | 1.23 ± 0.2 kcal/mol | 1.34 ± 0.074 kcal/mol
SAGGSAGGSMTIVIKVKSKEDALEAAKALLAELGIEEGAEVKKIEVEEVDPENKEYYVRIEVKSAGGSAGGS [r12_999_TrROS_Hall] | 1.72 ± 0.13 kcal/mol | 1.7 ± 0.029 kcal/mol | 1.75 ± 0.14 kcal/mol
SAGGSAGGSMTPVPGGYVITIETPAPGGVPLATLYVPSREEAEAAIAEIPAEDLTAVTVEPVLLSAGGSAGG [r6_705_JUSTAS] | 0.714 ± 0.034 kcal/mol | 0.566 ± 0.13 kcal/mol | 0.719 ± 0.081 kcal/mol
SAGGSAGGSMVEYTFTVYDPRTGKETLFTVPSDIPFEEAKEKVEKEIRKGLPPNYTVTFTKPASAGGSAGGS [r20_213_JUSTAS] | 1.75 ± 0.035 kcal/mol | 1.45 ± 0.11 kcal/mol | 1.58 ± 0.089 kcal/mol
SAGGSAGGSMVLNFEDTKPGVSPEEAAARVAAKIRAEHDVAVLGVEVETSPTGGYHITITVDPSAGGSAGGS [r12_781_JUSTAS] | 0.325 ± 0.059 kcal/mol | 0.272 ± 0.08 kcal/mol | 0.391 ± 0.062 kcal/mol
SAGGSAGGSMVPGKLLVTITDPNNGLTTTLDLPLEVKTEEDIEAEVQKIKEENPGKKVSVKLLSAGGSAGGS [r12_65_JUSTAS] | 1.65 ± 0.057 kcal/mol | 1.687 ± 0.013 kcal/mol | 1.69 ± 0.054 kcal/mol
SAGGSAGGSMVTPDGRLVIEIEVSEEDIEKLKEEARKKLGVKEVKVEVEEKDGKLKVRIVVEPSAGGSAGGS [r12_929_TrROS_Hall] | 0.743 ± 0.092 kcal/mol | 2.19 ± 0.15 kcal/mol | 1.77 ± 0.29 kcal/mol
SAGGSAGGSMVVVRRLPDGRYLLEVRLEGESLRFEVDGEEEVERFAKALEELTGRPVEVLTVESAGGSAGGS [r12_783_TrMRF] | 4.56 ± 0.12 kcal/mol | 3.84 ± 0.043 kcal/mol | 4.15 ± 0.061 kcal/mol
SAGGSAGGSMYIVNIKFYNPKTGKVLYIPIKTKKEKAEEIAKELAKKLPEIKYIKAEIKPDISSAGGSAGGS [r12_757_TrMRF] | 1.21 ± 0.093 kcal/mol | 1.74 ± 0.19 kcal/mol | 1.59 ± 0.19 kcal/mol
SAGGSAGGSMYIVRIEVVNEETGKTEEIELEVSEEEAEELAKELAEKLPNIKEIKVEIRPLPESAGGSAGGS [r12_757_TrROS_Hall] | 1.37 ± 0.15 kcal/mol | 1.96 ± 0.051 kcal/mol | 1.66 ± 0.21 kcal/mol
SAGGSAGGSMYRVRIKVRNRETGEWLEIELEVPEGVTEEELKAALRELFPDAEIVDIEIEKLPSAGGSAGGS [r12_738_TrROS_Hall] | 3.68 ± 0.14 kcal/mol | 4.34 ± 0.11 kcal/mol | 4.12 ± 0.2 kcal/mol
SAGGSAGGSMYVVKIKLKVYGENGEEYYFELELEVPEDELGEIEIELPGENLEFEAEVEVLPGSAGGSAGGS [r12_354_TrMRF] | 2.63 ± 0.15 kcal/mol | 3.73 ± 0.12 kcal/mol | 3.38 ± 0.14 kcal/mol

Sequence | folding stability dG unfold [1] | folding stability dG unfold [2] | folding stability dG unfold [3]
SAGGSAGGSNGDKKPPVKWEWVMIEIEIPPDDIDEIAEEFPGFSVNYERDNGHYRVNIMIPVPYSAGGSAGG [r6_686_TrROS] | 1.35 ± 0.021 kcal/mol | 1.94 ± 0.093 kcal/mol | 1.73 ± 0.089 kcal/mol
SAGGSAGGSNMPIKNVELHPLPNGWYLIKIRYGGKTRTFLFPPGAPFEIPLPPGMEIDIYPLNSAGGSAGGS [r12_373_TrROS] | 3.73 ± 0.066 kcal/mol | 3.933 ± 0.038 kcal/mol | 3.84 ± 0.043 kcal/mol
SAGGSAGGSNNPDKKKKPRYVVIQIELKWYPNPNGQWSPELEITATVPAGDLEDKDDAIKDIISAGGSAGGS [r12_933_TrROS] | 2.13 ± 0.098 kcal/mol | 1.29 ± 0.064 kcal/mol | 1.68 ± 0.17 kcal/mol
SAGGSAGGSNWYQFTIPFPIPPDEPVEIKLPDGWEIHEIPPNSGRITIYMPMNNMDAIKEAIGSAGGSAGGS [r12_476_TrROS] | 1.214 ± 0.012 kcal/mol | 1.01 ± 0.045 kcal/mol | 1.19 ± 0.056 kcal/mol
SAGGSAGGSPANIKITTTLDTETGYLTIVAYNPATGKVTVLTAKIYGNVPHIDGLEALFGALGSAGGSAGGS [r20_131_TrMRF] | 2.07 ± 0.086 kcal/mol | 3.02 ± 0.078 kcal/mol | 2.7 ± 0.18 kcal/mol
SAGGSAGGSPAPDVTIEVKVTYDPETGALRIEVEATIPGGGKITIEYTIPPLDKIEIVGVKIESAGGSAGGS [r12_1029_TrMRF] | 2.63 ± 0.15 kcal/mol | 3.83 ± 0.2 kcal/mol | 3.6 ± 0.26 kcal/mol
SAGGSAGGSPDAPPPPVNVVVPIPESELLSEEELPGGTTLRTYRLPDGTEITVRTAPDGRVTVDSAGGSAGG [r6_119_JUSTAS] | 3.01 ± 0.16 kcal/mol | 3.86 ± 0.059 kcal/mol | 3.57 ± 0.13 kcal/mol
SAGGSAGGSPEVLASFPLKDGSVVIVARRPGEIRVLVVKSSDLENIPELKDIKVFPTFGDDPVSAGGSAGGS [r12_343_TrMRF] | 1.03 ± 0.041 kcal/mol | 1.18 ± 0.077 kcal/mol | 1.19 ± 0.05 kcal/mol
SAGGSAGGSPGNYIIQIEIKFPGRKHTWHVDSPEEALEQLKNDLEKQHPNAPITDVEIEVFPLSAGGSAGGS [r12_429_TrROS] | 0.791 ± 0.2 kcal/mol | 0.155 ± 0.94 kcal/mol | 0.556 ± 0.46 kcal/mol
SAGGSAGGSPIEEIVAELKVPPGTTVKFPDGSTITLNSREDLLKLAKEGYPPEKLKDITVEAVSAGGSAGGS [r12_430_JUSTAS] | 0.308 ± 0.071 kcal/mol | 1.08 ± 0.059 kcal/mol | 0.856 ± 0.089 kcal/mol
SAGGSAGGSPKPIPIKIDEVWPNPDNGKDYIVKIEFPDGKKHTFTSPEDIRKLPGFDVEVYELSAGGSAGGS [r20_192_TrROS] | 0.123 ± 0.058 kcal/mol | 0.783 ± 0.27 kcal/mol | 0.621 ± 0.2 kcal/mol
SAGGSAGGSPKVTTSTSSSVLGNGRLESTVSNPDLGVTTLTLTDPESDVVTTFTETAGSTTPAASAGGSAGG [r6_757_JUSTAS] | 0.132 ± 0.025 kcal/mol | 0.815 ± 0.037 kcal/mol | 0.606 ± 0.031 kcal/mol
SAGGSAGGSPNPKNVKIYLVALDPDKPEVVAEASFNITVDTEEELEAILKELVPLFPGAKVFASAGGSAGGS [r12_1043_TrMRF] | 0.853 ± 0.086 kcal/mol | 1.25 ± 0.12 kcal/mol | 1.13 ± 0.1 kcal/mol
SAGGSAGGSPNTVPIPIRVEWYDPKDGEPKDEHPFNINFKTEEEAEDIIDNIAPDHPGMKIEISAGGSAGGS [r12_1043_TrROS] | 0.233 ± 0.096 kcal/mol | -0.322 ± 0.11 kcal/mol | 0.0133 ± 0.14 kcal/mol
SAGGSAGGSPPDFVIQPEVEHTRDPENGKHEATVKIEIMDGRPIEIPFKSPEDAEDAIKELINSAGGSAGGS [r12_389_TrROS] | 1.14 ± 0.079 kcal/mol | 0.382 ± 0.098 kcal/mol | 0.829 ± 0.13 kcal/mol
SAGGSAGGSPPNKEVYIRIKIEYDGPNGQPIMEFWIPADEITPSFIEELMNRGGIKVDIELIPSAGGSAGGS [r12_398_TrROS] | 2.66 ± 0.085 kcal/mol | 2.99 ± 0.032 kcal/mol | 2.84 ± 0.1 kcal/mol
SAGGSAGGSPRVLEIRRYPLPDGGYLLEVRFEKETLFIPVPENVPPHSLEEIEIPLLLGEKPESAGGSAGGS [r12_673_TrMRF] | 1.49 ± 0.022 kcal/mol | 1.6 ± 0.027 kcal/mol | 1.6 ± 0.044 kcal/mol
SAGGSAGGSPSEEARKKGGLTLTITLRYPDGSTVTITYPVSTPLTIPEEFAKNPPKIESIELSSAGGSAGGS [r12_161_JUSTAS] | 1.23 ± 0.019 kcal/mol | 1.38 ± 0.051 kcal/mol | 1.34 ± 0.073 kcal/mol
